Consider 8 substances from the supplement of paper PMC5998384.

Data set [1] deals with HeLa Kyoto. Kind of data set: melting temperature (median over replicates), in situ; higher = more thermally stable.
In data set [2] the test system is HeLa Kyoto. As to the kind of experiment: thermal stability score vs G1/S (z-score of summed log2 fold changes over temperatures); higher = more thermally stable than in G1/S.
Setting [3] is: cell cycle stage: early G1 (4.5 h after nocodazole release).
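For melting temperature (median over replicates), in situ in this document: HeLa Kyoto cells synchronized by double thymidine or nocodazole block, proteins quantified by TMT10plex mass spectrometry, three independent biological replicates.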
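For thermal stability score vs G1/S (z-score of summed log2 fold changes over temperatures) in this document: synchronized HeLa Kyoto cells, proteins quantified by TMT10plex mass spectrometry, three biological replicates, mitosis taken 0.5 h after nocodazole release, G1/S directly after double thymidine block.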

Sequence of SBF2 (chain, as listed by the source): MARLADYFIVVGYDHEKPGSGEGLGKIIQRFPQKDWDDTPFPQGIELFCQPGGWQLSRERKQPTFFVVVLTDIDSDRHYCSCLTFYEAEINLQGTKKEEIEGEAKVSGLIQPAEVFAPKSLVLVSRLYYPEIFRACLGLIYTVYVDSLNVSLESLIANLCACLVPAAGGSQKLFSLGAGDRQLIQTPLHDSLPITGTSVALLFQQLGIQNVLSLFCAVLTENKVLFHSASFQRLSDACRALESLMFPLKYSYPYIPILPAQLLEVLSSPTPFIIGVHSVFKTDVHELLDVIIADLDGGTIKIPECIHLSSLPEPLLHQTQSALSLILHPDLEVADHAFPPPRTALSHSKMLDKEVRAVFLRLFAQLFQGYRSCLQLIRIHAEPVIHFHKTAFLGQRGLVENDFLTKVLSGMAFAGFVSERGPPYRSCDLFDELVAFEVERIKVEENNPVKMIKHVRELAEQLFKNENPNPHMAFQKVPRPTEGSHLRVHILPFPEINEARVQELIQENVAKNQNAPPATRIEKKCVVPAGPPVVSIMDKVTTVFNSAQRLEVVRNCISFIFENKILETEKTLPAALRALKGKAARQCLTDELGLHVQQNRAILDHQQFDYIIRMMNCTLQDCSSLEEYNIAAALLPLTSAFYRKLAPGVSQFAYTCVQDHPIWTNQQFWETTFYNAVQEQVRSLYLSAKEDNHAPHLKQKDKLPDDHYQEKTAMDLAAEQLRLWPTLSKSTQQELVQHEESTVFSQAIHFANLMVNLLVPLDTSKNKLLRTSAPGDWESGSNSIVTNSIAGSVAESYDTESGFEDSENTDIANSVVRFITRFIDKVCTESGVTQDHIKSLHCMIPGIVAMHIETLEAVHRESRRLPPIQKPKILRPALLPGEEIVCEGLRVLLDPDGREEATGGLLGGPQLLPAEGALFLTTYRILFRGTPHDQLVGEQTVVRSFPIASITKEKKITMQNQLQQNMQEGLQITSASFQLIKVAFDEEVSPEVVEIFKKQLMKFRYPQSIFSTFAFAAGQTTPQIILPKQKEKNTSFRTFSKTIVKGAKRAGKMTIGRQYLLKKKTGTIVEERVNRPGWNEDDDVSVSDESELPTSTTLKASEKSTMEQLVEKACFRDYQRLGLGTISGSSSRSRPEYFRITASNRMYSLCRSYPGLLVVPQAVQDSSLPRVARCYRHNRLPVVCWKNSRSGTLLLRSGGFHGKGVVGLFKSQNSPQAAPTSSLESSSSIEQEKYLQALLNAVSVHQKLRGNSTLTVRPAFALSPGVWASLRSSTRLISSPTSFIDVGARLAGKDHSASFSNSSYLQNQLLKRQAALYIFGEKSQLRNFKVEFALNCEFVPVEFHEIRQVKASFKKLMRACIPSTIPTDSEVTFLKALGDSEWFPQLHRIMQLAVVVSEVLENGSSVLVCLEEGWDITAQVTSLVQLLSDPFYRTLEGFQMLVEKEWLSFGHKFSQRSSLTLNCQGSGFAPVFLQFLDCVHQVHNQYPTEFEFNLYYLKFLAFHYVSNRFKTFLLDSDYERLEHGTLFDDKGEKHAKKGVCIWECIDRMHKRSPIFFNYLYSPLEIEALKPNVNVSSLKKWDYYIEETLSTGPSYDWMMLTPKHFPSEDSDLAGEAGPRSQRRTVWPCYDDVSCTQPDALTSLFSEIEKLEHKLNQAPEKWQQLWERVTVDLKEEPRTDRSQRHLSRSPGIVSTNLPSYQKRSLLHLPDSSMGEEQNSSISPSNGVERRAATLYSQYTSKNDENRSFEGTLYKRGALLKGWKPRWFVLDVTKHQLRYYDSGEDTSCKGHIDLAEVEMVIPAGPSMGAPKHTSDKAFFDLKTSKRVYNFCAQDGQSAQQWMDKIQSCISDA

As to “MQPPGPPPAYAPTNGDFTFVSSADAEDLSGSIASPDVKLNLGGDFIKESTATTFLRQRGYGWLLEVEDDDPEDNKPLLEELDIDLKDIYYKIRCVLMPMPSLGFNRQVVRDNPDFWGPLAVVLFFSMISLYGQFRVVSWIITIWIFGSLTIFLLARVLGGEVAYGQVLGVIGYSLLPLIVIAPVLLVVGSFEVVSTLIKLFGVFWAAYSAASLLVGEEFKTKKPLLIYPIFLLYIYFLSLYTGV [YIPF4]”, the melting temperature with HeLa Kyoto [1] (cell cycle stage: G1/S) was found to be 57.7 °C; in the data set on HeLa Kyoto [1] (cell cycle stage: mitosis), 56.1 °C. Also, the thermal stability score in the data set with HeLa Kyoto [2] (setting [3]) is -0.481; in the data set with HeLa Kyoto [2] (cell cycle stage: mitosis), -2.96.
“MALRELKVCLLGDTGVGKSSIVWRFVEDSFDPNINPTIGASFMTKTVQYQNELHKFLIWDTAGQERFRALAPMYYRGSAAAIIVYDITKEETFSTLKNWVKELRQHGPPNIVVAIAGNKCDLIDVREVMERDAKDYADSIHAIFVETSAKNAININELFIEISRRIPSTDANLPSGGKGFKLRRQPSEPKRSCC [RAB22A]”: the results for the melting temperature in the data set with HeLa Kyoto [1] (cell cycle stage: G1/S) and with HeLa Kyoto [1] (cell cycle stage: mitosis) were 54.8 °C and 53.7 °C, respectively. Also, the thermal stability score with HeLa Kyoto [2] (setting [3]) came out at 1.25; in the data set on HeLa Kyoto [2] (cell cycle stage: mitosis) it was 0.617.
With SBF2, the melting temperature in the data set with HeLa Kyoto [1] (cell cycle stage: mitosis) came to 52.3 °C. The thermal stability score in the data set on HeLa Kyoto [2] (setting [3]) was -0.139; with HeLa Kyoto [2] (cell cycle stage: mitosis) it was 0.0344.
Regarding “MDSFNYTTPDYGHYDDKDTLDLNTPVDKTSNTLRVPDILALVIFAVVFLVGVLGNALVVWVTAFEAKRTINAIWFLNLAVADFLSCLALPILFTSIVQHHHWPFGGAACSILPSLILLNMYASILLLATISADRFLLVFKPIWCQNFRGAGLAWIACAVAWGLALLLTIPSFLYRVVREEYFPPKVLCGVDYSHDKRRERAVAIVRLVLGFLWPLLTLTICYTFILLRTWSRRATRSTKTLKVVVAVVASFFIFWLPYQVTGIMMSFLEPSSPTFLLLKKLDSLCVSFAYINCCINPIIYVVAGQGFQGRLRKSLPSLLRNVLTEESVVRESKSFTRSTVDTMAQKTQAV [C5AR1]”, the melting temperature in the data set on HeLa Kyoto [1] (cell cycle stage: G1/S) was 57.8 °C; with HeLa Kyoto [1] (cell cycle stage: mitosis), 57.4 °C. Besides, the values for the thermal stability score in the data set with HeLa Kyoto [2] (setting [3]) and in the data set on HeLa Kyoto [2] (cell cycle stage: mitosis) were -2.16 and -2.08, respectively.
For “MATRRLTDAFLLLRNNSIQNRQLLAEQVSSHITSSPLHSRSIAAELDELADDRMALVSGISLDPEAAIGVTKRPPPKWVDGVDEIQYDVGRIKQKMKELASLHDKHLNRPTLDDSSEEEHAIEITTQEITQLFHRCQRAVQALPSRARACSEQEGRLLGNVVASLAQALQELSTSFRHAQSGYLKRMKNREERSQHFFDTSVPLMDDGDDNTLYHRGFTEDQLVLVEQNTLMVEEREREIRQIVQSISDLNEIFRDLGAMIVEQGTVLDRIDYNVEQSCIKTEDGLKQLHKAEQYQKKNRKMLVILILFVIIIVLIVVLVGVKSR [STX16]”, in that order: 51 °C, 49.8 °C, -1.14 and -0.879.
Taken in the same sequence, the figures for “MPGRSCVALVLLAAAVSCAVAQHAPPWTEDCRKSTYPPSGPTYRGAVPWYTINLDLPPYKRWHELMLDKAPVLKVIVNSLKNMINTFVPSGKIMQVVDEKLPGLLGNFPGPFEEEMKGIAAVTDIPLGEIISFNIFYELFTICTSIVAEDKKGHLIHGRNMDFGVFLGWNINNDTWVITEQLKPLTVNLDFQRNNKTVFKASSFAGYVGMLTGFKPGLFSLTLNERFSINGGYLGILEWILGKKDVMWIGFLTRTVLENSTSYEEAKNLLTKTKILAPAYFILGGNQSGEGCVITRDRKESLDVYELDAKQGRWYVVQTNYDRWKHPFFLDDRRTPAKMCLNRTSQENISFETMYDVLSTKPVLNKLTVYTTLIDVTKGQFETYLRDCPDPCIGW [ASAH1]” were 55.8 °C, 55.9 °C, -1.25 and -2.17.
In the case of “MEEHGVTQTEHMATIEAHAVAQQVQQVHVATYTEHSMLSADEDSPSSPEDTSYDDSDILNSTAADEVTAHLAAAGPVGMAAAAAVATGKKRKRPHVFESNPSIRKRQQTRLLRKLRATLDEYTTRVGQQAIVLCISPSKPNPVFKVFGAAPLENVVRKYKSMILEDLESALAEHAPAPQEVNSELPPLTIDGIPVSVDKMTQAQLRAFIPEMLKYSTGRGKPGWGKESCKPIWWPEDIPWANVRSDVRTEEQKQRVSWTQALRTIVKNCYKQHGREDLLYAFEDQQTQTQATATHSIAHLVPSQTVVQTFSNPDGTVSLIQVGTGATVATLADASELPTTVTVAQVNYSAVADGEVEQNWATLQGGEMTIQTTQASEATQAVASLAEAAVAASQEMQQGATVTMALNSEAAAHAVATLAEATLQGGGQIVLSGETAAAVGALTGVQDANGLVQIPVSMYQTVVTSLAQGNGPVQVAMAPVTTRISDSAVTMDGQAVEVVTLEQ [NRF1]”, the melting temperature in the data set with HeLa Kyoto [1] (cell cycle stage: mitosis) stood at 51.4 °C. Moreover, the results for the thermal stability score with HeLa Kyoto [2] (setting [3]) and with HeLa Kyoto [2] (cell cycle stage: mitosis) were -0.324 and 0.518, respectively.
Take “MREYKVVVLGSGGVGKSALTVQFVTGSFIEKYDPTIEDFYRKEIEVDSSPSVLEILDTAGTEQFASMRDLYIKNGQGFILVYSLVNQQSFQDIKPMRDQIIRVKRYERVPMILVGNKVDLEGEREVSYGEGKALAEEWSCPFMETSAKNKASVDELFAEIVRQMNYAAQPNGDEGCCSACVIL [RAP2B]”: the results for the melting temperature in the data set on HeLa Kyoto [1] (cell cycle stage: G1/S) and with HeLa Kyoto [1] (cell cycle stage: mitosis) were 59.2 °C and 60.7 °C, respectively. Besides, the thermal stability score with HeLa Kyoto [2] (setting [3]) is -0.0087; in the data set with HeLa Kyoto [2] (cell cycle stage: mitosis), 0.542.
